One molecule from article PMC2807882, “Conservation of DNA-binding specificity and oligomerisation properties within the p53 family” can be followed below.

Holding throughout (experiment): fluorescence anisotropy, direct; 25 mM NaPi, 225 mM NaCl, 10% v/v glycerol, 5 mM DTT, 0.2 mg/mL BSA, 22°C; 20 nM labelled DNA; pH not stated for the binding assay
Holding throughout (details): protein: recombinant; tags: N-terminal 6xHis-lipoyl-TEV tag, cleaved; chain copies: 4; label: 5'-Alexa488
For orientation: Polarisation of emitted light reports the rotation of a fluorescent probe.

Data set [1] concerns the target T1, Dmp53 (Drosophila melanogaster, UniProt Q9N6D8 1-385).
T1 sequence: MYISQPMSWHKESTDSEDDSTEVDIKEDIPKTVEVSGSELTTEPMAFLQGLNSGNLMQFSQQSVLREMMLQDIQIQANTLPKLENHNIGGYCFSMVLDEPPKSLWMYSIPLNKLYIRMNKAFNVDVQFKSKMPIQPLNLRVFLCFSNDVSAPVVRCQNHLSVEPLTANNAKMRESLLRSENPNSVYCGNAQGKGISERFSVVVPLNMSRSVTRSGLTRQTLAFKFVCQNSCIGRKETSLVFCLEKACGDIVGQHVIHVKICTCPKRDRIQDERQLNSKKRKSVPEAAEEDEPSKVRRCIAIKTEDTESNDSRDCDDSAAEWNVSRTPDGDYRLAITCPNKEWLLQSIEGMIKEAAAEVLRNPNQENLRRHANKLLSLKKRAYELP

Data set [2] deals with Hsp53 (Homo sapiens, UniProt P04637 1-393).
Hsp53, sequence (P04637 whole entry): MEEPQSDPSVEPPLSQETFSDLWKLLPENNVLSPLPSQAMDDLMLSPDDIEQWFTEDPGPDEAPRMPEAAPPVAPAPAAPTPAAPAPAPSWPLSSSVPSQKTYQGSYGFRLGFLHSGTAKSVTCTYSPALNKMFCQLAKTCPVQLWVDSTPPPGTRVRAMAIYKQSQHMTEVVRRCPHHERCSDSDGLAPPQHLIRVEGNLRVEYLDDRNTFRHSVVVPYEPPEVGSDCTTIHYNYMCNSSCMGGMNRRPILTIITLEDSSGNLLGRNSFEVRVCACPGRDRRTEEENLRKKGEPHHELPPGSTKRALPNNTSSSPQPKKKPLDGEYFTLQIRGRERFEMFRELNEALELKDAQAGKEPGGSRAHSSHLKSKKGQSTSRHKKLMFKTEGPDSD
The target of data set [3] is Mmp53 (Mus musculus, UniProt P02340 1-390).
Mmp53, sequence (P02340 whole entry): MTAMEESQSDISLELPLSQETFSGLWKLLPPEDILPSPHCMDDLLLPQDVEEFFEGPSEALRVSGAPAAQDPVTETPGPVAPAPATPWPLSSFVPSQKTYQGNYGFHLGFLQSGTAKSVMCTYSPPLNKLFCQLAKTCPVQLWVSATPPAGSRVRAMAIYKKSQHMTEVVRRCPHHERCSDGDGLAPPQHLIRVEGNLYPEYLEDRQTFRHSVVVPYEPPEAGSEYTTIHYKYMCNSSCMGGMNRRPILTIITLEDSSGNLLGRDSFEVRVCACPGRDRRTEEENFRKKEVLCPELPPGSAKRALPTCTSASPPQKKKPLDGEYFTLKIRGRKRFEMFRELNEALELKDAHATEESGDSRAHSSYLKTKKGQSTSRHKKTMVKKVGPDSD
The target in data set [4] is T2, ΔNp63α (Homo sapiens, UniProt Q9H3D4-2 1-586).
T2 sequence: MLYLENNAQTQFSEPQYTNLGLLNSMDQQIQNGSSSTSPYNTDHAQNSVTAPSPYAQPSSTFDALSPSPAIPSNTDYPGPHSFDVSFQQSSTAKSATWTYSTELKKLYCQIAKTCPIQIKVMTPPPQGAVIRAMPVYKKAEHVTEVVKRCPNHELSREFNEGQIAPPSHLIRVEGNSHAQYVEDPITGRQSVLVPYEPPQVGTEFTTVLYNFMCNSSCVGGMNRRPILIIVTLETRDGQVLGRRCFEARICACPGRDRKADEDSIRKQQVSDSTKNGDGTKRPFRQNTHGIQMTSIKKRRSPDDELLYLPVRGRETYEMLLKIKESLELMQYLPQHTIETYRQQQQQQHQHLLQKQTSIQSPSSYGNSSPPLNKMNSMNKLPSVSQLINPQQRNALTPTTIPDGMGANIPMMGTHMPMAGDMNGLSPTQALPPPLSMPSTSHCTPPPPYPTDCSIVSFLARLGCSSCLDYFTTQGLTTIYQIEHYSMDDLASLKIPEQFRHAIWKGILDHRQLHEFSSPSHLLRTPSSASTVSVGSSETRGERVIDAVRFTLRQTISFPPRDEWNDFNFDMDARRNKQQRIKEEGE

Data set [5] concerns the target Xlp53 (Xenopus laevis, UniProt Q7T1D0 1-362).

Xlp53, sequence (Q7T1D0 entry or part of it): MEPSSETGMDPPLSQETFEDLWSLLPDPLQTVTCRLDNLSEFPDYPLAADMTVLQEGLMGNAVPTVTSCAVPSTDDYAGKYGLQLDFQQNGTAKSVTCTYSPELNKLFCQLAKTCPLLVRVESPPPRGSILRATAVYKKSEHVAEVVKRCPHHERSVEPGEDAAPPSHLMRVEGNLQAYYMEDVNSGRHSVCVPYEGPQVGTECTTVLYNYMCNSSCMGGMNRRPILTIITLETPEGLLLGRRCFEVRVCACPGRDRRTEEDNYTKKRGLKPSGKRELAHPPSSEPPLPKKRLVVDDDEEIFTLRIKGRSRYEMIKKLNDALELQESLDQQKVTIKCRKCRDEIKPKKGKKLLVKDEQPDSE

B1: Ref_Alexa488 (dsDNA)
DNA 1: GGACATGTCCGGACATGTCC
DNA 2: GGACATGTCCGGACATGTCC
On to B1, for which the Kd was -7.28 ± 0.03 log10(M) in data set [1]; -7.25 ± 0.03 log10(M) in data set [2]; -7.02 ± 0.04 log10(M) in data set [3]; -7.12 ± 0.01 log10(M) in data set [4]; -7.32 ± 0.02 log10(M) in data set [5].
